B1: minF1; a variant is named by its letters at N, in order (parent)
chain: GAGACCGCAACTGAAAAGTTGTTNNNNAANNNNGGNTNNATTTCTGCACGTAGAAGCAAAAGGC

Variants of: B1
Assay: fraction ligated after 30 min (ligated reads / total reads); higher = more ligase activity
Settings: with F1*subA RNA substrate (template-directed ligation), 42 °C
Experimental: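 Chip-synthesised pool of minF1 ligase ribozyme variants (single and double substitutions, single to quadruple deletions, bulge and P2 designed variants) was transcribed with T7 and reacted as a pool with excess substrate F1*subA for 30 min at 42 C in 50 mM EPPS pH 8.5, 25 mM MgCl2. Ligated and unligated RNAs were separated by PAGE, barcoded by RT and deep sequenced; fraction ligated = ligated reads / total reads, relative activity = FL / FL of wild-type minF1 (0.76); sequencing FL correlated with PAGE (R2 = 0.98). Sequences are the DNA template of the ribozyme.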

Compared with GAGACCGCAACTGAAAAGTTGTTTCGAAATATGGGTTGAATTTCTGCACGTAGAAGCAAAAGGC [TCGATATGTGA], GAGACCGCAACTGAAAAGTTGTTTCGAAATGGTGGGTTAATTTCTGCACGTAGAAGCAAAAGGC [TCGATGGTGTA] is higher in fraction ligated: 0.00214 for the first, 0.00285 for the second.

First: GAGACCGCAACTGAAAAGTTGTTTCGAAATGGTGGGTTGATTTCTGCACGTAGAAGCAAAAGGC [TCGATGGTGTG]
Second: GAGACCGCAACTGAAAAGTTGTATCGAATGGAGGGTTGAATTTCTGCACGTAGAAGCAAAAGGC [TCGAGGAGTGA T23A A29T]
The fraction ligated of the first is higher: 0.00467 for the first, 0.00108 for the second.

First: GAGACCGCAACTGAAAAGTTGTTACGAAATGGAGGGTTGATTTCTGCACGTAGAAGCAAAAGGC [ACGATGGAGTG]
Second: GAGACCGCAACTGAAAAGTTGTTACGAAATGGAGGGTTAATTTCTGCACGTAGAAGCAAAAGGC [ACGATGGAGTA]
The fraction ligated of the first is higher: 0.0132 for the first, 0.00344 for the second.

First: GAGACCGCAACTGAAAAGTTGTATCGAAAGGATGGTTGAATTTCTGCACGTAGAAGCAAAAGGC [TCGAGGATTGA T23A]
Second: GAGACCGCAACTGAAAAGTTGTTTCGAATGGTGGGTTGAATTTCTGCACGTAGAAGCAAAAGGC [TCGAGGTGTGA A29T]
The fraction ligated of the first is lower: 0.00135 for the first, 0.00308 for the second.

Going from GAGACCGCAACTGAAAAGTTGTATCGAAATGGAGGTTGAATTTCTGCACGTAGAAGCAAAAGGC [TCGATGGATGA T23A] to GAGACCGCAACTGAAAAGTTGTATCGAATGGATGGGTTAATTTCTGCACGTAGAAGCAAAAGGC [TCGAGGATGTA T23A A29T], the fraction ligated rises from 0.00236 to 0.00462.

First: GAGACCGCAACTGAAAAGTTGTATCGAAAGGATGGGTTAATTTCTGCACGTAGAAGCAAAAGGC [TCGAGGATGTA T23A]
Second: GAGACCGCAACTGAAAAGTTGTATCGAAAGGATGGGTTGATTTCTGCACGTAGAAGCAAAAGGC [TCGAGGATGTG T23A]
The fraction ligated of the first is lower: 0.0024 for the first, 0.00538 for the second.

Going from GAGACCGCAACTGAAAAGTTGTTACGAAATGGTGGGTTGATTTCTGCACGTAGAAGCAAAAGGC [ACGATGGTGTG] to GAGACCGCAACTGAAAAGTTGTTACGAAATGGTGGGTTAATTTCTGCACGTAGAAGCAAAAGGC [ACGATGGTGTA], the fraction ligated falls from 0.00433 to 0.00204.

First: GAGACCGCAACTGAAAAGTTGTATCGAAATGGATGGGTTGTTTCTGCACGTAGAAGCAAAAGGC [TCGATGGAGTT T23A G34T T37G A40G]
Second: GAGACCGCAACTGAAAAGTTGTTTCGAAATGGTGGTTGAATTTCTGCACGTAGAAGCAAAAGGC [TCGATGGTTGA]
The fraction ligated of the first is lower: 0.00165 for the first, 0.00257 for the second.

Compared with GAGACCGCAACTGAAAAGTTGTATCGAAAGGTGGGTTGAATTTCTGCACGTAGAAGCAAAAGGC [TCGAGGTGTGA T23A], GAGACCGCAACTGAAAAGTTGTTACGAAAGGATGGTTGAATTTCTGCACGTAGAAGCAAAAGGC [ACGAGGATTGA] is lower in fraction ligated: 0.00322 for the first, 0.00256 for the second.

Going from GAGACCGCAACTGAAAAGTTGTATCGAAATGGATGGTTAATTTCTGCACGTAGAAGCAAAAGGC [TCGATGGAGTA T23A G34T] to GAGACCGCAACTGAAAAGTTGTTACGAATGGATGGGTTAATTTCTGCACGTAGAAGCAAAAGGC [ACGAGGATGTA A29T], the fraction ligated falls from 0.139 to 0.00647.

Going from GAGACCGCAACTGAAAAGTTGTTACGAATGGTGGGTTGAATTTCTGCACGTAGAAGCAAAAGGC [ACGAGGTGTGA A29T] to GAGACCGCAACTGAAAAGTTGTATCGAAAGATGGGTTGAATTTCTGCACGTAGAAGCAAAAGGC [TCGAGATGTGA T23A], the fraction ligated rises from 0.00316 to 0.00396.

Compared with GAGACCGCAACTGAAAAGTTGTTTCGAATGGATGGGTTGATTTCTGCACGTAGAAGCAAAAGGC [TCGAGGATGTG A29T], GAGACCGCAACTGAAAAGTTGTTACGAAATATGGGTTGAATTTCTGCACGTAGAAGCAAAAGGC [ACGATATGTGA] is lower in fraction ligated: 0.0133 for the first, 0.00174 for the second.

First: GAGACCGCAACTGAAAAGTTGTTTCGAATGGAGGGTTGAATTTCTGCACGTAGAAGCAAAAGGC [TCGAGGAGTGA A29T]
Second: GAGACCGCAACTGAAAAGTTGTTTCGAAATGGGGGTTGAATTTCTGCACGTAGAAGCAAAAGGC [TCGATGGGTGA]
The fraction ligated of the first is lower: 0.00284 for the first, 0.00376 for the second.

Going from GAGACCGCAACTGAAAAGTTGTTACGAATGGAGGGTTGAATTTCTGCACGTAGAAGCAAAAGGC [ACGAGGAGTGA A29T] to GAGACCGCAACTGAAAAGTTGTTTCGAAATGAGGGTTGAATTTCTGCACGTAGAAGCAAAAGGC [TCGATGAGTGA], the fraction ligated falls from 0.00454 to 0.00207.

Compared with GAGACCGCAACTGAAAAGTTGTTTCGAAATGGAGGGTTGATTTCTGCACGTAGAAGCAAAAGGC [TCGATGGAGTG], GAGACCGCAACTGAAAAGTTGTTTCGAAATGGAGGGTTAATTTCTGCACGTAGAAGCAAAAGGC [TCGATGGAGTA] is lower in fraction ligated: 0.0131 for the first, 0.00705 for the second.

Going from GAGACCGCAACTGAAAAGTTGTTACGAAATGATGGTTGAATTTCTGCACGTAGAAGCAAAAGGC [ACGATGATTGA] to GAGACCGCAACTGAAAAGTTGTTACGAAATGGATGGGTTGTTTCTGCACGTAGAAGCAAAAGGC [ACGATGGAGTT G34T T37G A40G], the fraction ligated falls from 0.00224 to 0.00103.

Going from GAGACCGCAACTGAAAAGTTGTTACGAAAGGATGGGTTGATTTCTGCACGTAGAAGCAAAAGGC [ACGAGGATGTG] to GAGACCGCAACTGAAAAGTTGTTACGAAAGGATGGGTTAATTTCTGCACGTAGAAGCAAAAGGC [ACGAGGATGTA], the fraction ligated falls from 0.00917 to 0.00292.

First: GAGACCGCAACTGAAAAGTTGTATCGAAATGATGGGTTGATTTCTGCACGTAGAAGCAAAAGGC [TCGATGATGTG T23A]
Second: GAGACCGCAACTGAAAAGTTGTATCGAAATGGATGGTTGATTTCTGCACGTAGAAGCAAAAGGC [TCGATGGAGTG T23A G34T]
The fraction ligated of the first is lower: 0.00459 for the first, 0.25 for the second.

Compared with GAGACCGCAACTGAAAAGTTGTTACGAAATGGAGGTTGAATTTCTGCACGTAGAAGCAAAAGGC [ACGATGGATGA], GAGACCGCAACTGAAAAGTTGTTTCGAAAGGAGGGTTGAATTTCTGCACGTAGAAGCAAAAGGC [TCGAGGAGTGA] is lower in fraction ligated: 0.0034 for the first, 0.00338 for the second.

Compared with GAGACCGCAACTGAAAAGTTGTTTCGAAATGGATGGGTTATTTCTGCACGTAGAAGCAAAAGGC [TCGATGGAGTT G34T T37G], GAGACCGCAACTGAAAAGTTGTTTCGAAATGTGGGTTGAATTTCTGCACGTAGAAGCAAAAGGC [TCGATGTGTGA] is higher in fraction ligated: 0.00201 for the first, 0.0025 for the second.

Going from GAGACCGCAACTGAAAAGTTGTTACGAAATGGATGGGTTATTTCTGCACGTAGAAGCAAAAGGC [ACGATGGAGTT G34T T37G] to GAGACCGCAACTGAAAAGTTGTATCGAATGGATGGTTGAATTTCTGCACGTAGAAGCAAAAGGC [TCGAGGATTGA T23A A29T], the fraction ligated rises from 0.00155 to 0.00747.

From the supplement of paper PMC6755084
